Data on 16 sequences can be found in a protein production outcome set (Wang et al. 2014).
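Also: failed if final PepcDB status was selected cloned or expressed and not failed if soluble or beyond.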

The nature of the data set: label from the status in PepcDB records.
In the case of “MVSNQRVRLFMLCFCLVNNAVIAATEDENVERKPYIVYMGEATENSLVEAAENHHNLLMTVIGDESKARELKIYSYGKNINGFVARLFPHEAEKLSREEGVVSVFKNTQRQLHTTRSWDFLGLVESKYKRSVGIESNIIVGVLDTGIDVESPSFNDKGVGPPPAKWKGKCVTGNNFTRCNNKVIGAKYFHIQSEGLPDGEGDTAADHDGHGTHTSSTIAGVSVSSASLFGIANGTARGGVPSARIAAYKVCWDSGCTDMDMLAAFDEAISDGVDIISISIGGASLPFFEDPIAIGAFHAMKRGILTTCSAGNNGPGLFTVSNLAPWVMTVAANSLDRKFETVVKLGNGLTASGISLNGFNPRKKMYPLTSGSLASNLSAGGYGEPSTCEPGTLGEDKVMGKVVYCEAGREEGGNGGQGQDHVVRSLKGAGVIVQLLEPTDMATSTLIAGSYVFFEDGTKITEYINSTKNPQAVIFKTKTTKMLAPSISSFSARGPQRISPNILKPDISAPGLNILAAYSKLASVTGYPDDNRRTLFSIMSGTSMACPHAAAAAAYVKSFHPDWSPAAIKSALMTTATPMRIKGNEAELSYGSGQINPRRAIHPGLVYDITEDAYLRFLCKEGYNSTSIGLLTGDNSNNTTKKEYNCENIKRGLGSDGLNYPSLHKQVNSTEAKVSEVFYRTVTNVGYGPSTYVARVWAPKGLRVEVVPKVMSFERPKEKRNFKVVIDGVWDETMKGIVSASVEWDDSRGHLVRSPILLFRSDNDYR”, the protein production result was “failed”. Regarding “MVSPKKESKSMKILKNLALPIAMALGVLAWPILSPLSFLIPYMIFLMLFFTFLKISPRDMHFSRLHLLLALIQITLAIGGFFAFRLLDPIVAEGVMICFICPAATASSVIIGMLGGNIAFGATYVLLTHMGVAVLGPLLFSSLSTAHADMPFWSSVIHILWGVLPLVVVPLLAAWIIRFTSPRTHARLLRIPQMAFWLWVTSLAIIMAKTTGYVMAQGSDSIRLELLLALGGLLSCLLQFGLGKWLSKRYLKESITAGQALGQKNTSLAIWMSLTYLNPIASIAPASYVVWQNSLNSIQIWLYDKRKNKTDRQ”, the protein production result is “failed”.

With “MVSRRLQDSANRLFGKAATFIENGKYDRALESLKDVDKIMKKEKDPEISFHTLFLKGYTISKAGDPEGALEFYGEALKIIEPLFSGEPGKKNYQKFISNMIEEIGSSFDELNDEERAEELLGPMEKQFEKVVRTFEELVKSDPENQEYLSGFLEIIGSMGVCYQAGQLMDQAVKLFDKKIDIYEKLFELESGETDLLGDFDEDIELYGYLFRNYGHLKEAEGNYFRAAGIYRKMIEKDPENSMAEYYLSYTYSYHGSLYSGMENLEKAERYYEEAVELMDKGYKEFPEDYAYAVSLANIHESYGVAFSNRKYLEKSIANYTKAREIYRDLIINHPSEFARNKKIAMYLDDLGDRFSKIGEFEAAELCYKDKLDVFRNLHDEDPEDLNPIFEISDTYEELGDIFAEHGETGKAKAYYEKEIEIYESLLETEPDALDYKTYMAEVQATIGKLYLDEEPEKAQKYFEDALSVLENNFELEPEMDIHYSVLKKVLNNFIQLFKNQEEHEKAAEMYSKLLAVQQRMLDLNPEEREYKEDLAVTYTNLALLHSERGDIEQEARYHRLALDIHEKILEESSDYPLFLQRFVTGIYLLGSRLKLDEESRGKESGIVKEYLELAKKAENKLYAVKPEIMEDKELIAEIAEKMGISFRENEMYEEAIEEFKRSLAIREKLHEKNPENLNYLTVLEGIFHQMGITFLAQKDLEKAKETLEKAMDLNAKLLETDPEDFNYLARSSMIFETYSSVLENMGKSEEAAKYLAKAEEINAKLGYSNE”, the protein production entry is listed as “failed”. The entry for “MVSRTGRTHLPLVDSLKEKLPYILCGLLALAGVLLVWSLGSTFLPVLLALILAYVLNPLVTWLEARRVPRVAAVLLVMALIVVVTAGAVTFFAVSIQKEVARVEINLPAYATRLYDLIPGQAKAYLEIETPDKLYARIDSLVDELRGASFDLVKGALGVVQRAFSSTLGFLLTVAGYFITPVYLYYFLADLPRLRDGIMALVPGRARDRAAMLGSEIDGVLSGFVRGQLAVCAILAVLYSIGLVMIGIDLAIVIGSLSGFLFIIPYVGTVFGIVVSMIMAFLKFHDMLHPLLCLGWFAIVQAIEGALITPAVVGNTVGLHPVVAILALFIGGQWFGIFGMLLAVPVAAVIKVLLRHGVEWYRATPFFERP” is “failed”; for “MVSSAIVLGLTAATVLVFTGIGLFAARGRIDSVETYISARDSAGSGTLAATVIASMMGVWILLSPAEAGAAFGGLPAVLGYAIGSAIPLLLFIPVGARIREVMPAGHSLTEFAYARFGSGMYLLVLLVSVFYMFIFLAAEMTGIAGALALVADVPLWQTSLLIGGFVLVYTAYGGLLASIVTDTVQTLVILPLLAVGFGGALLSLGGTSEFHATVVSADPTLLDPGFGPGLEFGLYVAFALLGANMLNQGVWQRVYAADGDGALRRGMGIAAVVVVPMLLLSGLFGIAAAGLGLTESGSASIAFFLVVAEAFPTWVTLAVVVLAVLLVMSSADTMFNAIASVVTADLARLLDDPDQRTLWLGGRGLTVAVALAAMFIGAQGYSVLQLFLTADLLAAGVFVPFLAGLYTERLTGPGALVSGIAGLLVGFTYFPSLRGLMAAIPGVGSMLPAPSFLIAFAGATLVSAALTAVATLLGGADADLDSLGREVRALDDPVADGGSEQ” it is “failed”; for “MVSSSNNSSIAKAFVTVAAIFIIFAGIKTAANILVPFLLSVFIAIICNPLINKASEYKIPKAVSVIFVIVVFVTMAVFLTGLVGSSLNELSQQIPQYRIQLKEQFTWLTSFLNSHDIQLSSSIVTEYFDPAAAMGLAADMLSSFGSVMTNLFLIILTVVFMLFESSTIPHKLHLALDDPQMRLNQIERFLSSVNQYIAIKTLVSIATGCIVSLMLWIFGLDFFLLWGVLAFLLNYIPNIGSIIAAVPPMTLAILQLSIGEAGAIGLGFVLINMVMGNIIEPRYLGKGLGLSTLVVFLSLIFWGWLLGTVGMLLSVPLTMILKIGLESSPEGRWLAVMLSDEVELVDKTEQALLD” it is “failed”. The entry for “MVSTLGSDTFTSISAHDLHGKLGNIHLIDVRENDDFKEGHIPTSRNIPMDILLKEPEKYINKTDEYYIVCQAGVKSEKTCKELWSKGYKVINIKDGTDSYKQPLER” is “failed”; for “MVSVNSSHCFYNDSFKYTLYGCMFSMVFVLGLISNCVAIYIFICVLKVRNETTTYMINLAMSDLLFVFTLPFRIFYFTTRNWPFGDLLCKISVMLFYTNMYGSILFLTCISVDRFLAIVYPFKSKTLRTKRNAKIVCTGVWLTVIGGSAPAVFVQSTHSQGNNASEACFENFPEATWKTYLSRIVIFIEIVGFFIPLILNVTCSSMVLKTLTKPVTLSRSKINKTKVLKMIFVHLIIFCFCFVPYNINLILYSLVRTQTFVNCSVVAAVRTMYPITLCIAVSNCCFDPIVYYFTSDTIQNSIKMKNWSVRRSDFRFSEVHGAENFIQHNLQTLKSKIFDNESAA” it is “failed”; for “MVTKILKAPDGSPSDVERIKKESDYLRGTLKEVMLDRISAGIPDDDNRLMKHHGSYLQDDRDLRNERQKQKLEPAYQFMLRVRMPGGVSTPEQWLVMDDLSQKYGNGTLKLTTRETFQMHGILKWNMKKTIQTIHSALLDTIAACGDVNRNVMCASNPYQSEIHSEVYEWSKKLSDDLLPRTRAYHEIWLDEERVAGTPEEEVEPMYGPLYLPRKFKIGIAVPPSNDIDVFSQDLGFIAIVEDGKLIGFNVAIGGGMGMTHGDTATYPQLAKVIGFCRPEQMYDVAEKTITIQRDYGNRSVRKNARFKYTVDRLGLENVKEELENRLGWSLEEAKPYHFDHNGDRYGWVEGIEDKWHFTLFVEGGRITDYDDYKLMTGLREIAKVHTGEFRLTANQNLMIANVSSDKKEEISALIEQYGLTDGKHYSALRRSSMACVALPTCGLAMAEAERYLPTLLDKIEEIIDENGLRDQEITIRMTGCPNGCARHALGEIGFIGKAPGKYNMYLGAAFDGSRLSKMYRENIGEADILSELRILLSRYAKEREEGEHFGDFVIRAGIIKATTDGTNFHD” it is “failed”. The entry for “MVVKFTKSEALHKEALEHIVGGVNSPSRSFKAVGGGAPIAMERGKGAYFWDVDGNKYIDYLAAYGPIITGHAHPHITKAITTAAENGVLYGTPTALEVKFAKMLKEAMPALDKVRFVNSGTEAVMTTIRVARAYTGRTKIMKFAGCYHGHSDLVLVAAGSGPSTLGTPDSAGVPQSIAQEVITVPFNNVETLKEALDKWGHEVAAILVEPIVGNFGIVEPKPGFLEKVNELVHEAGALVIYDEVITAFRFMYGGAQDLLGVTPDLTALGKVIGGGLPIGAYGGKKEIMEQVAPLGPAYQAGTMAGNPASMASGIACLEVLQQEGLYEKLDELGAMLEKGILEQAAKHNIDITLNRLKGALTVYFTTNTIEDYDAAQDTDGEMFGKFFKLMLQEGVNLAPSKYEAWFLTTEHTKEDIEYTIEAVGRAFAALADNK” is “not failed”. “MVVKVINKKQDKFYFKLGMFILIFLILGVSLLNIIGINVDKTYENGNGMYAHIVDYSLPWVKVANNKNTSENTYSIKNIILSAAGLDINKPENVISKEVSFLGEALPKSIKSECPNESFTLDDKDVVKSTSGSVQNEPLKNINENIYDPKLKKALDKSKPEILIYHSHTTEAYKPYPADSLNSTQNVCAVGDELVKELGEKYGIYAINDKTVHNVVDYNKSYTRSGETLDKYLKQYGDFKMIIDMHRDSDVPKSKVTARINGEDVAKFMFVMTRKNPHFDKNMALVNGLVSICNKDFPGIFNGIYYYDYGINYYNQQKSNNAFLLEVGSDINTIDEAKGTSKYLARIIAEYLNGKK”: the protein production result is given as “failed”.

As for “MVVMYFLFPETTNVVIVSALNFAALFLSFFTHYTSSRKDEDLTILAFSCLFSSLLSLFFLRIFLMNPKNAWMFLSSSKLILAEGFFFFLIGKKKNSFKWLVVLTFVILFAVSVLRFDFTLHLESVSLALFSLLLLIRKPQTTLLSVSLFLYSISSIFFYFFRSAYPYHVASGSIFLMWHFVKKYVETPKEEAEKLSKELEIPPERISSAVTNLYNFLIEILRIIPEILREDDQNRVREMLSKYFSQEVSSYFPKLRDAFSKFAEEYISFLEEKQKFQDMYVVLTKNLAHNLKNPVNAIYVSAQLLKQQFPETSPVVRNIEKLCHEMTEEIERILKTSIGRSEVLRKNDVEKALEPILETARLKNLETDIEMEFDELEIDKDAFLALVLNLFSNAVKYTPSGRVVLKIEKKNDKINLRVSDTGPGLKEQNGFGLFTVKKLVNYLNGSMEVIKKDGTTFVITLPLRRDKNDSTDRGR”, the protein production result was “failed”. Take “MVVRSLSVVGLGPAGAGAAAAASRLGVKPVIYEAMEKPGLKPCGRGLPIVDGGLPVSIPRDSILRRIRGARMYVDGEFLFEMKGFLDGYIVDKTVMLEAIAVEAGGEIHYRAKYKPGSSTVRLPGGGEARVEQGVFAGGHPYYGGAKIAAVQWIMKTGPRSDPVGDMLEIHFDTELLGYAYIFPKEEGFIEVGIGGFATPRELRERLESFIHKRSDLRELERVKLEGARIAIGGLDLGVVDGLVKAGEAAGFVLPLTGEGIRPSLISGYEAASALIEGGSPLEKLRSLPIARAVSMQKRILDLVAGMSVEERRSLLKSLTPRAHAEIALGMFRKHILLKELARSPRALSLLGLVTRLI”: the protein production result was “failed”. Turning to “MVVYGADVICASCVNAPTSKDIYDWLQPLLKRKYPNISFKYTYIDITKDNDNLTDHDLQFIERIEQDELFYPLITMNDEYVADGYIQTKQITRFIDQKLVNE”, the protein production entry is given as “not failed”. As for “MVVYGKQKYIMKRCFYMNKKLKTEAVDHLFQAILTLKSTEECYSFFEDVCTVNELLSFSQRYEVAKMLREKRTYLEIADKTGASTATISRVNRSLNYGNDGYDMVFKRLEDQAAEDNEA”, the protein production entry is reported as “failed”. Regarding “MVWTGLLIGVLFGVILQRGRICFNSAFRDVLIFKDNYLMRLAALTLGLESITLLIFAQAGIITLNPKPLNWIGNIIGGFIFGMGMVLAGGCASGVTYRTGEGMTTAWFAALAYALTAHATKKGLFSGWIKWLSNYTVTVSNTNPVYAPKTGPTIATVLGISPWIASIIFLALMLWYAFGVKNKSQRPSKLNWIAASVLIAILAPIAWWASASTGRNYGLGITGGWINLVSVYANNASLNWEGAEILGIIIGAAISAIAGKEFKLRMPKNPKTYAQVLLGGFLMGFGAVTAGGCNIGHFLTGVPTLAISSIVASIFFILGNWTMAWFLFGRQK”, the protein production result is listed as “failed”.
